In the supplement of paper PMC10065799, “High-throughput profiling of sequence recognition by tyrosine kinases and SH2 domains using bacterial peptide display” (eLife, 2023):
Values belong to the sequence of their own block, whether it stands above or below them.

Tests used:
EPHB2 = EPHB2 (UniProt P29323); assay: phosphorylation enrichment, bacterial display (enrichment ratio); higher = better substrate or ligand; peptides without Tyr show the background
c-Src = assay: as above
MERTK = MERTK (UniProt Q12866); assay: as above
EPHB1 = EPHB1 (UniProt P54762); assay: as above
FGFR1 = FGFR1 (UniProt P11362); assay: as above
AncSZ = assay: as above
Jak2 = Jak2 (UniProt O60674); assay: as above
FGFR3 = FGFR3 (UniProt P22607); assay: as above
c-Abl (mouse) = assay: as above
Hck = Hck (UniProt P08631); assay: as above
Fyn = Fyn (UniProt P06241); assay: as above
Fer (mouse) = assay: as above
Fes = Fes (UniProt P07332); assay: as above
Grb2 SH2 = Grb2 SH2 (UniProt P62993); assay: SH2 binding enrichment of the phosphorylated peptide, bacterial display (enrichment ratio); higher = better substrate or ligand; peptides without Tyr show the background
SHP2-C SH2 = assay: as above
c-Src SH2 = assay: as above
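Wherever SH2 binding enrichment of the phosphorylated peptide, bacterial display is given: peptide library displayed on the E. coli surface as eCPX fusions, selected cells deep-sequenced, score is each peptide's frequency after selection divided by its frequency in the input.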
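Wherever phosphorylation enrichment, bacterial display is given: 11-residue human phosphosite peptides and single-mutation variants displayed on the E. coli surface, counted by deep sequencing, each peptide's frequency after selection divided by its frequency in the unselected input library; frequency after pTyr selection over input frequency; kinase dosed for 20-30% of maximal phosphorylation in three min.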

Fyn, sequence (P06241 whole entry, looked up): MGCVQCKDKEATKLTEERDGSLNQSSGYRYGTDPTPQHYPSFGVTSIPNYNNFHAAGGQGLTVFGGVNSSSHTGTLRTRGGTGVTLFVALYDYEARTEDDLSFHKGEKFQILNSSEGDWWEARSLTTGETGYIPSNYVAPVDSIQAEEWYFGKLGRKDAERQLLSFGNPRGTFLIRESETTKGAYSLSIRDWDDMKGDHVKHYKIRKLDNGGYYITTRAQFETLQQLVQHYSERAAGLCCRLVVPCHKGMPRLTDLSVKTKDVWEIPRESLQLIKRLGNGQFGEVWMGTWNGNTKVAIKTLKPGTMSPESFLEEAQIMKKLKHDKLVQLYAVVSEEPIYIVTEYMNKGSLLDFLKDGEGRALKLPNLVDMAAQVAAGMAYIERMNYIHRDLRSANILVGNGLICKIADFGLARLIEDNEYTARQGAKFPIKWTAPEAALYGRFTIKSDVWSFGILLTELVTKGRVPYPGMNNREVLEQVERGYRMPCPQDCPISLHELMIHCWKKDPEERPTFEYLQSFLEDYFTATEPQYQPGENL
FGFR3, sequence (P22607 whole entry, looked up): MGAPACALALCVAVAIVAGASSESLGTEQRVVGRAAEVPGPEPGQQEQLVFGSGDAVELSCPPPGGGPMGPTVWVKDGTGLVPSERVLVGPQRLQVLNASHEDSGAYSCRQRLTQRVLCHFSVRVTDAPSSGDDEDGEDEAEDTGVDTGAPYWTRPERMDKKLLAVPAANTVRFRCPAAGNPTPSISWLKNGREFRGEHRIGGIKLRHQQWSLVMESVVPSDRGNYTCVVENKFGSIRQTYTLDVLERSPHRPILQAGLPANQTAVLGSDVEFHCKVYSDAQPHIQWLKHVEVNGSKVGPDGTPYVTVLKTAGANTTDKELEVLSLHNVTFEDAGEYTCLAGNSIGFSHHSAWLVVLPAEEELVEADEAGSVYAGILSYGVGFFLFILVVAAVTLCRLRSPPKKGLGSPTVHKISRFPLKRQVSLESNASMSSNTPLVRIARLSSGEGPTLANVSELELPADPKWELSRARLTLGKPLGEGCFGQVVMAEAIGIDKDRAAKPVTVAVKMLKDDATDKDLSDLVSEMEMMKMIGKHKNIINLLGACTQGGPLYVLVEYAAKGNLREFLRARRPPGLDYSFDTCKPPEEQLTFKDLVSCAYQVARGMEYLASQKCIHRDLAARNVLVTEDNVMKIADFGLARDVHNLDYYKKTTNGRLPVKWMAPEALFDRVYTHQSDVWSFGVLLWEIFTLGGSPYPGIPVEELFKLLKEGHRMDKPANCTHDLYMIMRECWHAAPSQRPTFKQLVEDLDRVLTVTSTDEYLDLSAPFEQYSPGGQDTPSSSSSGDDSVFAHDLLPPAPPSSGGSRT
Fes, sequence (P07332 whole entry, looked up): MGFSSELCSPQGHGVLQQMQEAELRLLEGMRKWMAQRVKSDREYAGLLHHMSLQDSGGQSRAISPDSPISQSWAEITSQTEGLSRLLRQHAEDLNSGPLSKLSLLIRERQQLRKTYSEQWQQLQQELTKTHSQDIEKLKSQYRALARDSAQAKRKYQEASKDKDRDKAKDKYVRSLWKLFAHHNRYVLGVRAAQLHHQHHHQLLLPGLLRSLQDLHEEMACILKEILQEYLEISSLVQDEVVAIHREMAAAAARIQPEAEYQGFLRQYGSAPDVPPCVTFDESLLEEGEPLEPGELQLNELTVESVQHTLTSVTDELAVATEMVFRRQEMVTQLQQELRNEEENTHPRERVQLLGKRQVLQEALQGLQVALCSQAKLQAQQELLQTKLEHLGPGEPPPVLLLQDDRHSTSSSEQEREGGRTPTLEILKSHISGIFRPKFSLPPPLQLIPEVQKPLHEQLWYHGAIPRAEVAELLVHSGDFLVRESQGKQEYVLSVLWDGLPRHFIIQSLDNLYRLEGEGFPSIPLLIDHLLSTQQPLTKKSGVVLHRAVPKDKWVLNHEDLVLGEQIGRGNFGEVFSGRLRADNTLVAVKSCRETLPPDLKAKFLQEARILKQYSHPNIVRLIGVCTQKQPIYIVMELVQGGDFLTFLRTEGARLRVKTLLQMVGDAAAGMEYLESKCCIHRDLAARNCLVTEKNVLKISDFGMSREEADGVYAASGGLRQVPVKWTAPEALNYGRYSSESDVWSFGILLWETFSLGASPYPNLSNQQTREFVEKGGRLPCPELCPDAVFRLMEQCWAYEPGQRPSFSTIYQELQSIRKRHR
Hck, sequence (P08631 whole entry, looked up): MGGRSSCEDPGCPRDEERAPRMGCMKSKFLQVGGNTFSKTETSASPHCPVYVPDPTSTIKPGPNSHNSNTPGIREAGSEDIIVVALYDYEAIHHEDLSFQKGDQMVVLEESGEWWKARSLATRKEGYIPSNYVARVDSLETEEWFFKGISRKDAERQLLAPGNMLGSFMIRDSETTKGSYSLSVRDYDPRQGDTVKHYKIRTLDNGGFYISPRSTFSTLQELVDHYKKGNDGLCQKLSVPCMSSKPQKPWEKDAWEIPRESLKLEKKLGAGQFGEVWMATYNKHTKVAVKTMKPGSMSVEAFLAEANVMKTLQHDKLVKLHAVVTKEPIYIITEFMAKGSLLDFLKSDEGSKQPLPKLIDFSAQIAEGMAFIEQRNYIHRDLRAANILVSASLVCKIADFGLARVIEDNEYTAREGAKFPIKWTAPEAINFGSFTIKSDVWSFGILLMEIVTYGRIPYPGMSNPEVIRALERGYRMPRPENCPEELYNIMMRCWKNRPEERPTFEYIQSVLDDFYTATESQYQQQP
Jak2, sequence (O60674 whole entry, looked up): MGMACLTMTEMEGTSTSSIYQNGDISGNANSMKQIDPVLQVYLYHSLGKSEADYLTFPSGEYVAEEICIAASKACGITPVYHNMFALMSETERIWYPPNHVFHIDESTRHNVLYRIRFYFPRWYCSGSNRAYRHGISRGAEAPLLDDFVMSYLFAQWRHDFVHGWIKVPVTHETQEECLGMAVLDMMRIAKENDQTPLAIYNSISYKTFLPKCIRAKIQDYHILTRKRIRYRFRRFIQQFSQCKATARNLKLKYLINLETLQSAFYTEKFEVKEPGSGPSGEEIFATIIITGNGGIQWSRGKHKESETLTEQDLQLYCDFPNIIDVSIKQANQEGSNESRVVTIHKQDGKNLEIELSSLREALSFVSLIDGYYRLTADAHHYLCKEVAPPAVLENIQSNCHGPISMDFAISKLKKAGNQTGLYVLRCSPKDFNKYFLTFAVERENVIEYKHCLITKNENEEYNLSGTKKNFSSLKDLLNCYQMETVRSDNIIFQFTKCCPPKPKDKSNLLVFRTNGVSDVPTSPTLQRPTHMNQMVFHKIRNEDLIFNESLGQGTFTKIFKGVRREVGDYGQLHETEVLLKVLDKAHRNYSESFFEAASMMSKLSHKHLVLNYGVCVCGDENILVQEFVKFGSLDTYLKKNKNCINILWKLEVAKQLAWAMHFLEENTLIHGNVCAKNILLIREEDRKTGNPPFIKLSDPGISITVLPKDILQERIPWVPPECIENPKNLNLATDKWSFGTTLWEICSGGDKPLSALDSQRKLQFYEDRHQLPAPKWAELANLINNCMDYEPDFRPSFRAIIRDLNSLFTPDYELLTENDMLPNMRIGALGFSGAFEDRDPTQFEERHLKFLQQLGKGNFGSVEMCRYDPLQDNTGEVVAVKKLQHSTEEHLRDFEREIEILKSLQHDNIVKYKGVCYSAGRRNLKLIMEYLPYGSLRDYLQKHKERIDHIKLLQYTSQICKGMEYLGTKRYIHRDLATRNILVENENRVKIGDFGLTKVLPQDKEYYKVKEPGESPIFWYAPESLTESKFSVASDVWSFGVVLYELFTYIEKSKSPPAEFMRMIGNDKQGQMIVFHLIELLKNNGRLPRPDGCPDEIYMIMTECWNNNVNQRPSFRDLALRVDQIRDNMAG
MERTK, sequence (Q12866 whole entry, looked up): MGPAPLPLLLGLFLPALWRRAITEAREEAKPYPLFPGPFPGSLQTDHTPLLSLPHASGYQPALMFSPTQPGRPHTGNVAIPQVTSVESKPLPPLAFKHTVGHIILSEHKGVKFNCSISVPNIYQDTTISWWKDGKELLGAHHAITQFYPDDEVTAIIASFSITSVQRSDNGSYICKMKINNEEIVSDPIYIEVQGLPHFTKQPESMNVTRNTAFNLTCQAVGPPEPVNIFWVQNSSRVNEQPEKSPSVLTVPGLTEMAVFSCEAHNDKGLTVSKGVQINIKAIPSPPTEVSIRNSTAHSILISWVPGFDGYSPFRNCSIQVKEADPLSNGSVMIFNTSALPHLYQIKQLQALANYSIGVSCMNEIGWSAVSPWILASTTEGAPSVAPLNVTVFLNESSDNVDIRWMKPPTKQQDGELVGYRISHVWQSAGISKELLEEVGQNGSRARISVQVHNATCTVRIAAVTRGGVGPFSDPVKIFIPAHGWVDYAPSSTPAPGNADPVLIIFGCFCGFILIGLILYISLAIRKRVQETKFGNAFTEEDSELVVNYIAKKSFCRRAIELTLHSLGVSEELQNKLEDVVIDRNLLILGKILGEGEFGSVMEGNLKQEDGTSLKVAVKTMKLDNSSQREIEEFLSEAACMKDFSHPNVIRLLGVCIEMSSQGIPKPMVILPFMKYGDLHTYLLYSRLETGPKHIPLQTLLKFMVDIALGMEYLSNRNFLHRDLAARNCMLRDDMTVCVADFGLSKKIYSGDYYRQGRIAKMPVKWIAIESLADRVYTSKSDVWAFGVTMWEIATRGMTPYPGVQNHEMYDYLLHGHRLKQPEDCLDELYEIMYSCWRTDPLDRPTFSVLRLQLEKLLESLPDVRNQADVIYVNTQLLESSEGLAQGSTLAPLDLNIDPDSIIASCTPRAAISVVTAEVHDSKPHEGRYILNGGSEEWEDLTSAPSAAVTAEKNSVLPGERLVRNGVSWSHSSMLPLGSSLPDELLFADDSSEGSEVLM

SH2 binding enrichment (Grb2 SH2): 1.05
SH2 binding enrichment (SHP2-C SH2): 0.569
SH2 binding enrichment (c-Src SH2): 0.849
Sequence: PGRRFYVVACD [RNASE3_Y134]
phosphorylation enrichment (EPHB2): 1.19
phosphorylation enrichment (c-Src): 2.16
phosphorylation enrichment (MERTK): 1.22
phosphorylation enrichment (EPHB1): 0.536
phosphorylation enrichment (FGFR1): 0.654
phosphorylation enrichment (AncSZ): 1.43
phosphorylation enrichment (Jak2): 2.05
phosphorylation enrichment (FGFR3): 0.916
phosphorylation enrichment (c-Abl (mouse)): 1.24
phosphorylation enrichment (Hck): 0.733
phosphorylation enrichment (Fyn): 0.389
phosphorylation enrichment (Fer (mouse)): 0.52
phosphorylation enrichment (Fes): 1.65

SH2 binding enrichment (Grb2 SH2): 0.728
SH2 binding enrichment (SHP2-C SH2): 0.723
SH2 binding enrichment (c-Src SH2): 0.477
Sequence: SHPSSYTTHPQ [NIPBL_Y195]
phosphorylation enrichment (EPHB2): 0.384
phosphorylation enrichment (c-Src): 0.478
phosphorylation enrichment (MERTK): 0.463
phosphorylation enrichment (EPHB1): 0.362
phosphorylation enrichment (FGFR1): 0.459
phosphorylation enrichment (AncSZ): 0.412
phosphorylation enrichment (Jak2): 0.492
phosphorylation enrichment (FGFR3): 0.404
phosphorylation enrichment (c-Abl (mouse)): 0.417
phosphorylation enrichment (Hck): 0.46
phosphorylation enrichment (Fyn): 0.441
phosphorylation enrichment (Fer (mouse)): 0.467
phosphorylation enrichment (Fes): 0.82

SH2 binding enrichment (Grb2 SH2): 1.09
SH2 binding enrichment (SHP2-C SH2): 0.567
SH2 binding enrichment (c-Src SH2): 0.499
Sequence: EALDFYGEVRI [PTEN_Y155_T160I]
phosphorylation enrichment (EPHB2): 0.614
phosphorylation enrichment (c-Src): 1.44
phosphorylation enrichment (MERTK): 0.494
phosphorylation enrichment (EPHB1): 0.871
phosphorylation enrichment (FGFR1): 0.538
phosphorylation enrichment (AncSZ): 1.49
phosphorylation enrichment (Jak2): 2.03
phosphorylation enrichment (FGFR3): 1.1
phosphorylation enrichment (c-Abl (mouse)): 1.11
phosphorylation enrichment (Hck): 1.13
phosphorylation enrichment (Fyn): 1.64
phosphorylation enrichment (Fer (mouse)): 1.55
phosphorylation enrichment (Fes): 1.73

SH2 binding enrichment (Grb2 SH2): 1.04
SH2 binding enrichment (SHP2-C SH2): 0.745
SH2 binding enrichment (c-Src SH2): 4.65
Sequence: NALVQYQEMEK [BBS4_Y395_A393V]
phosphorylation enrichment (EPHB2): 0.503
phosphorylation enrichment (c-Src): 0.507
phosphorylation enrichment (MERTK): 0.459
phosphorylation enrichment (EPHB1): 0.507
phosphorylation enrichment (FGFR1): 0.562
phosphorylation enrichment (AncSZ): 0.978
phosphorylation enrichment (Jak2): 1.02
phosphorylation enrichment (FGFR3): 0.721
phosphorylation enrichment (c-Abl (mouse)): 0.62
phosphorylation enrichment (Hck): 0.569
phosphorylation enrichment (Fyn): 0.53
phosphorylation enrichment (Fer (mouse)): 0.509
phosphorylation enrichment (Fes): 1.02

SH2 binding enrichment (Grb2 SH2): 0.9
SH2 binding enrichment (SHP2-C SH2): 0.604
SH2 binding enrichment (c-Src SH2): 0.523
Sequence: YLEKYYKFGSR [NNMT_Y25]
phosphorylation enrichment (EPHB2): 0.48
phosphorylation enrichment (c-Src): 0.654
phosphorylation enrichment (MERTK): 0.407
phosphorylation enrichment (EPHB1): 0.453
phosphorylation enrichment (FGFR1): 0.524
phosphorylation enrichment (AncSZ): 0.69
phosphorylation enrichment (Jak2): 0.604
phosphorylation enrichment (FGFR3): 0.553
phosphorylation enrichment (c-Abl (mouse)): 0.59
phosphorylation enrichment (Hck): 0.473
phosphorylation enrichment (Fyn): 0.501
phosphorylation enrichment (Fer (mouse)): 0.508
phosphorylation enrichment (Fes): 0.779

SH2 binding enrichment (Grb2 SH2): 0.878
SH2 binding enrichment (SHP2-C SH2): 0.965
SH2 binding enrichment (c-Src SH2): 0.575
Sequence: GKTFTYRSVFF [ZNF80_Y200]
phosphorylation enrichment (EPHB2): 0.466
phosphorylation enrichment (c-Src): 0.412
phosphorylation enrichment (MERTK): 0.42
phosphorylation enrichment (EPHB1): 0.464
phosphorylation enrichment (FGFR1): 0.388
phosphorylation enrichment (AncSZ): 0.809
phosphorylation enrichment (Jak2): 0.744
phosphorylation enrichment (FGFR3): 0.562
phosphorylation enrichment (c-Abl (mouse)): 0.693
phosphorylation enrichment (Hck): 0.374
phosphorylation enrichment (Fyn): 0.43
phosphorylation enrichment (Fer (mouse)): 0.457
phosphorylation enrichment (Fes): 0.951

SH2 binding enrichment (Grb2 SH2): 0.844
SH2 binding enrichment (SHP2-C SH2): 0.574
SH2 binding enrichment (c-Src SH2): 0.535
Sequence: IGKDLYANNVL [ACTA2_Y296_R292G]
phosphorylation enrichment (EPHB2): 0.634
phosphorylation enrichment (c-Src): 0.55
phosphorylation enrichment (MERTK): 0.556
phosphorylation enrichment (EPHB1): 0.679
phosphorylation enrichment (FGFR1): 0.45
phosphorylation enrichment (AncSZ): 1.2
phosphorylation enrichment (Jak2): 1.03
phosphorylation enrichment (FGFR3): 0.64
phosphorylation enrichment (c-Abl (mouse)): 0.77
phosphorylation enrichment (Hck): 0.775
phosphorylation enrichment (Fyn): 0.526
phosphorylation enrichment (Fer (mouse)): 0.619
phosphorylation enrichment (Fes): 1.15

SH2 binding enrichment (Grb2 SH2): 0.887
SH2 binding enrichment (SHP2-C SH2): 0.863
SH2 binding enrichment (c-Src SH2): 0.587
Sequence: NLSVRYDSSLK [ABCC8_Y1353]
phosphorylation enrichment (EPHB2): 0.457
phosphorylation enrichment (c-Src): 0.492
phosphorylation enrichment (MERTK): 0.381
phosphorylation enrichment (EPHB1): 0.515
phosphorylation enrichment (FGFR1): 0.446
phosphorylation enrichment (AncSZ): 0.68
phosphorylation enrichment (Jak2): 0.847
phosphorylation enrichment (FGFR3): 0.633
phosphorylation enrichment (c-Abl (mouse)): 0.55
phosphorylation enrichment (Hck): 0.473
phosphorylation enrichment (Fyn): 0.353
phosphorylation enrichment (Fer (mouse)): 0.422
phosphorylation enrichment (Fes): 0.98

SH2 binding enrichment (Grb2 SH2): 0.869
SH2 binding enrichment (SHP2-C SH2): 0.589
SH2 binding enrichment (c-Src SH2): 0.558
Sequence: SRIWVYNHFRC [BRCA2_Y2621_W2626C_YF]
phosphorylation enrichment (EPHB2): 0.672
phosphorylation enrichment (c-Src): 0.483
phosphorylation enrichment (MERTK): 0.466
phosphorylation enrichment (EPHB1): 0.638
phosphorylation enrichment (FGFR1): 0.575
phosphorylation enrichment (AncSZ): 1.16
phosphorylation enrichment (Jak2): 1.19
phosphorylation enrichment (FGFR3): 0.937
phosphorylation enrichment (c-Abl (mouse)): 0.976
phosphorylation enrichment (Hck): 0.543
phosphorylation enrichment (Fyn): 0.547
phosphorylation enrichment (Fer (mouse)): 0.653
phosphorylation enrichment (Fes): 1.43

Second part, the sequence before the results:

Sequence: VVAHHYSFAPD [TNS3_Y601_Q600H]
phosphorylation enrichment (EPHB2): 0.502
phosphorylation enrichment (c-Src): 0.643
phosphorylation enrichment (MERTK): 0.593
phosphorylation enrichment (EPHB1): 0.426
phosphorylation enrichment (FGFR1): 0.683
phosphorylation enrichment (AncSZ): 0.646
phosphorylation enrichment (Jak2): 0.707
phosphorylation enrichment (FGFR3): 0.674
phosphorylation enrichment (c-Abl (mouse)): 0.583
phosphorylation enrichment (Hck): 0.453
phosphorylation enrichment (Fyn): 0.532
phosphorylation enrichment (Fer (mouse)): 0.499
phosphorylation enrichment (Fes): 0.882
SH2 binding enrichment (Grb2 SH2): 0.781
SH2 binding enrichment (SHP2-C SH2): 1.43
SH2 binding enrichment (c-Src SH2): 2.22

Sequence: TTSQLYDAVPI [PDPK1_Y9]
phosphorylation enrichment (EPHB2): 17.1
phosphorylation enrichment (c-Src): 7.33
phosphorylation enrichment (MERTK): 13
phosphorylation enrichment (EPHB1): 13.4
phosphorylation enrichment (FGFR1): 0.611
phosphorylation enrichment (AncSZ): 1.28
phosphorylation enrichment (Jak2): 0.849
phosphorylation enrichment (FGFR3): 0.786
phosphorylation enrichment (c-Abl (mouse)): 1.31
phosphorylation enrichment (Hck): 11.5
phosphorylation enrichment (Fyn): 10.2
phosphorylation enrichment (Fer (mouse)): 19.6
phosphorylation enrichment (Fes): 1.41
SH2 binding enrichment (Grb2 SH2): 0.728
SH2 binding enrichment (SHP2-C SH2): 0.848
SH2 binding enrichment (c-Src SH2): 0.485

Sequence: AFSLKYDQQTQ [SYTL4_Y366_E367D]
phosphorylation enrichment (EPHB2): 0.69
phosphorylation enrichment (c-Src): 0.48
phosphorylation enrichment (MERTK): 0.406
phosphorylation enrichment (EPHB1): 0.484
phosphorylation enrichment (FGFR1): 0.539
phosphorylation enrichment (AncSZ): 1.03
phosphorylation enrichment (Jak2): 1.03
phosphorylation enrichment (FGFR3): 0.784
phosphorylation enrichment (c-Abl (mouse)): 0.716
phosphorylation enrichment (Hck): 0.614
phosphorylation enrichment (Fyn): 0.522
phosphorylation enrichment (Fer (mouse)): 0.485
phosphorylation enrichment (Fes): 1.14
SH2 binding enrichment (Grb2 SH2): 0.824
SH2 binding enrichment (SHP2-C SH2): 0.64
SH2 binding enrichment (c-Src SH2): 0.555

Sequence: EPFELYCEMGS [CBL_Y371_Q367P_YF]
phosphorylation enrichment (EPHB2): 2.31
phosphorylation enrichment (c-Src): 1.21
phosphorylation enrichment (MERTK): 1.16
phosphorylation enrichment (EPHB1): 2.64
phosphorylation enrichment (FGFR1): 0.897
phosphorylation enrichment (AncSZ): 1.68
phosphorylation enrichment (Jak2): 1.38
phosphorylation enrichment (FGFR3): 1.22
phosphorylation enrichment (c-Abl (mouse)): 0.848
phosphorylation enrichment (Hck): 1.51
phosphorylation enrichment (Fyn): 1.26
phosphorylation enrichment (Fer (mouse)): 0.749
phosphorylation enrichment (Fes): 1.55
SH2 binding enrichment (Grb2 SH2): 0.764
SH2 binding enrichment (SHP2-C SH2): 0.558
SH2 binding enrichment (c-Src SH2): 0.397

Sequence: FYVVRYCWLRR [MPZ_Y181]
phosphorylation enrichment (EPHB2): 0.508
phosphorylation enrichment (c-Src): 0.612
phosphorylation enrichment (MERTK): 0.604
phosphorylation enrichment (EPHB1): 0.496
phosphorylation enrichment (FGFR1): 0.595
phosphorylation enrichment (AncSZ): 0.869
phosphorylation enrichment (Jak2): 0.596
phosphorylation enrichment (FGFR3): 0.614
phosphorylation enrichment (c-Abl (mouse)): 0.758
phosphorylation enrichment (Hck): 0.567
phosphorylation enrichment (Fyn): 0.62
phosphorylation enrichment (Fer (mouse)): 0.51
phosphorylation enrichment (Fes): 0.747
SH2 binding enrichment (Grb2 SH2): 0.761
SH2 binding enrichment (SHP2-C SH2): 0.565
SH2 binding enrichment (c-Src SH2): 0.545

Sequence: MIRSTYALGGL [CPS1_Y590_A589T]
phosphorylation enrichment (EPHB2): 0.521
phosphorylation enrichment (c-Src): 0.546
phosphorylation enrichment (MERTK): 0.488
phosphorylation enrichment (EPHB1): 0.4
phosphorylation enrichment (FGFR1): 0.774
phosphorylation enrichment (AncSZ): 0.63
phosphorylation enrichment (Jak2): 0.73
phosphorylation enrichment (FGFR3): 0.486
phosphorylation enrichment (c-Abl (mouse)): 0.498
phosphorylation enrichment (Hck): 0.487
phosphorylation enrichment (Fyn): 0.466
phosphorylation enrichment (Fer (mouse)): 0.489
phosphorylation enrichment (Fes): 0.693
SH2 binding enrichment (Grb2 SH2): 0.699
SH2 binding enrichment (SHP2-C SH2): 0.626
SH2 binding enrichment (c-Src SH2): 0.439

Sequence: EAGKVYLKAPM [CBFB_Y96]
phosphorylation enrichment (EPHB2): 0.524
phosphorylation enrichment (c-Src): 0.434
phosphorylation enrichment (MERTK): 0.602
phosphorylation enrichment (EPHB1): 0.443
phosphorylation enrichment (FGFR1): 0.433
phosphorylation enrichment (AncSZ): 0.754
phosphorylation enrichment (Jak2): 0.669
phosphorylation enrichment (FGFR3): 0.609
phosphorylation enrichment (c-Abl (mouse)): 0.504
phosphorylation enrichment (Hck): 0.496
phosphorylation enrichment (Fyn): 0.492
phosphorylation enrichment (Fer (mouse)): 0.411
phosphorylation enrichment (Fes): 0.939
SH2 binding enrichment (Grb2 SH2): 0.956
SH2 binding enrichment (SHP2-C SH2): 0.609
SH2 binding enrichment (c-Src SH2): 0.503
